Test: soluble on expression in E. coli; label from the status in PepcDB or PDB records

Row | Sequence | soluble on expression in E. coli
1 | MSLQSSVKTERQYLSGRGCDDMVQWDFMCTGGNNSGKWTKIGVPSCWELQGFGTYQYGMKFYGKAFPEGVADEQGLYKYEFELPAEWNGKQIELVFEGSMTDTQVKINGRKAGSMHQGAFYRFIYNVSDRVFFGSKKKNVLEVTVSKESANAGVNLAERRADYWNFGGIFRPVFIVAKPAQNIDRLVIDAKADGNFYADCFLNMAVEGARVHTVITDAKGKKVAENTSDVRTGSDHASINFAVKSPELWTAETPAMYQATFTLLDKAGKTLHVENQKFGFRTIETRESDGLYINGRRVMIKGVNRHSFRPESGRTLSKAKNIEDVLLIKSMNMNAVRLSHYPADPEFFEACDSLGLYVMDELSGWHGKHETINGQKLVKEMITRDVNHPCIIWWSNGNEKGWNTELDGEFHKYDPQKRPVLHPQGNFSGYETMHYRSYGESQNYMRLPEIFMPTEFLHGLYDGGHGAGLYDYWEMMRKHPRCAGGFLWVLADEGVKRVDMNGFIDNCGNYGADGIVGPHHEKEGSYFTIKQVWCPIQIMTDSLDSQFDGKLKIENRYDFLNANTCRFTYKYVQLPSVTDKGGMKVMKQGEVNCPDIPAHGAGTLTIPAAVKGANALMLTVTDKQGNDLFTWSYKLDDVAGLQQVSAGNKPSYKETADALTVDAEGRTFTFSQKDGQLKGVKVGSRIISLANGPRFIAAKRSDRSMDQFYNHDDKEAEKKKTQYTTFDDAGRFTGFTVREEGNNVVVTANYKLGCFDQAVWTIAPDGTAAIDFTYNFSGVVDLMGVMFDYPEDKVLSKRWVGDGPYRVWQNRLHGPQLGVWENEYNDPIPAESFTYPEFKGYFANVQWMTLKTQEGTISICNRTPQNYVGVYQPRDGRDGLLYTFPATGISLMKVIPPVRNKVNTTDLIGPSSQAFWADGAYGGGITLKFEEGHHHHHH | soluble
2 | MAHHHHHHMEEAKIEAALHICNLLPAHVFEETIKLLSKVDQNLTNNILINKEGPIKIKFDSQQNKHYLGNMFNKEKDSYRSPYSNRYYPEHYPNGYIPSESLRMLEMLYNEMYDRYRKAYYIGGLSSVYLWPNPIEEGFVACFLIKKKENYDPCTSLTWEGTHLIQVSITHARVYYQISTTVNFFIKKKNEMTLSASINKALETPKKVSNVNLVKDKYFHMHNMGKMIEGIENSLRKSIEYIYLPKMNDILNSIRMDDSFASAWHNADRKAAQNLRTISSNIALSRGSVQDELRLKLKGRSFDAGAEYSLRT | not soluble
3 | RQAVGPGGVPAGAGGSGAVLGPEAAGPEREEPECGSSGGGMSRPPPTGKMPGAPETAPGDGAGASRQRKLEALIRDPRSPINVESLLDGLNSLVLDLDFPALRKNKNIDNFLNRYEKIVKKIRGLQMKAEDYDVVKVIGRGAFGEVQLVRHKASQKVYAMKLLSKFEMIKRSDSAFFWEERDIMAFANSPWVVQLFYAFQDDRYLYMVMEYMPGGDLVNLMSNYDVPEKWAKFYTAEVVLALDAIHSMGLIHRDVKPDNMLLDKHGHLKLADFGTCMKMDETGMVHCDTAVGTPDYISPEVLKSQGGDGFYGRECDWWSVGVFLYEMLVGDTPFYADSLVGTYSKIMDHKNSLCFPEDAEISKHAKNLICAFLTDREVRLGRNGVEEIRQHPFFKNDQWHWDNIRETAAPVVPELSSDIDSSNFDDIEDDKGDVETFPIPKAFVGNQLPFIGFTYYRENLLLSDSPSCRENDSIQSRKNEESQEIQKKLYTLEEHLSNEMQAKEELEQKCKSVNTRLEKTAKELEEEITLRKSVESALRQLEREKALLQHKNAEYQRKADHEADKKRNLENDVNSLKDQLEDLKKRNQNSQISTEKVNQLQRQLDETNALLRTESDTAARLRKTQAESSKQIQQLESNNRDLQDKNCLLETAKLKLEKEFINLQSALESERRDRTHGSEIINDLQGRICGLEEDLKNGKILLAKVELEKRQLQERFTDLEKEKSNMEIDMTYQLKVIQQSLEQEEAEHKATKARLADKNKIYESIEEAKSEAMKEMEKKLLEERTLKQKVENLLLEAEKRCSLLDCDLKQSQQKINELLKQKDVLNEDVRNLTLKIEQETQKRCLTQNDLKMQTQQVNTLKMSEKQLKQENNHLMEMKMNLEKQNAELRKERQDADGQMKELQDQLEAEQYFSTLYKTQVRELKEECEEKTKLGKELQQKKQELQDERDSLAAQLEITLTKADSEQLARSIAEEQYSDLEKEKIMKELEIKEMMARHKQELTEKDATIASLEETNRTLTSDVANLANEKEELNNKLKDVQEQLSRLKDEEISAAAIKAQFEKQLLTERTLKTQAVNKLAEIMNRKEPVKRGNDTDVRRKEKENRKLHMELKSEREKLTQQMIKYQKELNEMQAQIAEESQIRIELQMTLDSKDSDIEQLRSQLQALHIGLDSSSIGSGPGDAEADDGFPESRLEGWLSLPVRNNTKKFGWVKKYVIVSSKKILFYDSEQDKEQSNPYMVLDIDKLFHVRPVTQTDVYRADAKEIPRIFQILYANEGESKKEQEFPVEPVGEKSNYICHKGHEFIPTLYHFPTNCEACMKPLWHMFKPPPALECRRCHIKCHKDHMDKKEEIIAPCKVYYDISTAKNLLLLANSTEEQQKWVSRLVKKIPKKPPAPDPFARSSPRTSMKIQQNQSIRRPSRQLAPNKPS | soluble
4 | MGSDKIHHHHHHMKIVAIDTSTKQLSVALSDGQQILAEASYVTSLNHATKLMPLLERMMQEVNWSPRDLTRIVIADGPGSYTGLRIGATTAKTLAYTLGIDLVPVSTLELMAASAGSTGRIVAIQDARRGTGFVGFYEEGQLVGEEQHTVIADFVKTLPTDTKITGDTDKFTTELQSFTIVDPAFRAPRAGVLALLGAKREPVETHAFEPRYLRLAEAEAKWIEAQRHD | not soluble
5 | MSLSEDKMDLYLQQGMYGPLETKPDERHLFLGSLRERVVLALTKGQVLRSKPYKEAEHELKNSHNVTLLINGELQYQSYSSYIQMASRYGVPFKIVSDLQFHTPLGIVIAADIAVNRELIYIQDDIYNRSVLKSEGHHHHHH | soluble
6 | SSNQTPYIGSKISLISKLDIRYEGILYTVDTNDSTIALAKVRSFGTEKRPTANPVAARDDVYEYIIFKASDIKDLIVCDTPKMANIGGGLPYDPAIISVSSRSAPASDGAPAASAGSSRAGTPSRNSPLGQIIQNQRPGRGGYQQNFQANRGYNNYRGGFAGGYNNQRGHNNYGVPRVNHREKLKFESDFDFEKANEKFQEVLVDNLEKLNIEDKAEPEVEEKKDAAFYDKKTSFFDNISCESLEKAEGKTGRPDWKKERETNQETFGHNAVRSLNYRRGFGGRGRGGNRGYGGYNNGYQHQHQHRGGYNGGYRQNNGGYRRGGYAPRDNQGNTAAAAEQ | not soluble
7 | MGHHHHHHSHMGDPEYLATFRIVVMPIAREFSPDLVLVSAGFDAAEGHPAPLGGYHVSAKCFGYMTQQLMNLAGGAVVLALEGGHDLTAICDASEACVAALLGNRVDPLSEEGWKQKPNLNAIRSLEAVIRVHSKYWGCMQRLASCPDSWVPRVPGADKEEVEAVTALASLSVGILAEDRPSEQLVEEEEPMNL | not soluble
8 | GHMSRRSFKNRVLAFFKGYPSFYYPATLVAPVHSAVTSSIMYKVQFDDATMSTVNSNQIKRFFLKKGDVVQSTRLGKIKHTVVKTFRSTNEQLSLIAVDALNNDMVILAHGEIEVTVPISTIYVAPVNIRRFQGRDLSFSTLKDMKFEETSFL | soluble
9 | SLRFYAACLASYNNGVLHGRWIDASSDTDEMQEEVSAMLRASRFPNVMVKCPNCEGRLELCTVCDGGSREVPSAEEWAIHDYDGLPSSLGEYPGLDKIAAFVELCEEHDMTGEDMAAIVSHFGSVEYAKEELGNNFVGVHESFRAYAEELADEMLSAHDIKADHPLSQYFDYEAYARDLRHSASAVELDEGVAVFCV | soluble
10 | MAHHHHHHMRRGGTVVFQRHRVSGGISRANEMSAFARLRGGQQKTETDWVPTLLLSGETPPPIARPAETAAFFLASFDPFVFSYCMFDFPTILHHAGELSEHELLDYPGSMLMSPRSLFLQPTAHLRFGSERQQRMAVVLQSLLDRHDESERSPVPCARALGVQCPLFVPFLRGVCLCVETQHPFAPQAAYVFEELLASGFVSSTLYLDGTYVDRNRTLAQIVQLAAREFGSESALFTGLLLDEEHASPPETIAVGRLVAQTLAAADRRRLDWALKTRGAVRQRLVPQHGWTLGPSPSLLSTAQQ | soluble
11 | ISDLHPQLQPLAETFLRLCRDQGVDPLLICTWRSSEEQAQLYRRGRDLPGAIVTYARPGESAHNATLHGNPAARAFDVVPLLAGKPICDIDHPHWQVMGR | not soluble
12 | GSPASGTSLSAAIHRTQLWFHGRISREESQRLIGQQGLVDGLFLVRESQRNPQGFVLSLCHLQKVKHYLILPSEEEGRLYFSMDDGQTRFTDLLQLVEFHQLNRGILPCLLRHCCTRVAL | soluble
13 | MSLKIAMIGLGDIAQKAYLPVLAQWPDIELVLCTRNPKVLGTLATRYRVSATCTDYRDVLQYGVDAVMIHAATDVHSTLAAFFLHLGIPTFVDKPLAASAQECENLYELAEKHHQPLYVGFNRRHIPLYNQHLSELAQQECGALRSLRWEKHRHALPGDIRTFVFDDFIHPLDSVNLSRQCNLDDLHLTYHMSEGLLARLDVQWQTGDTLLHASMNRQFGITTEHVTASYDNVAYLFDSFTQGKMWRDNQESRVALKDWTPMLASKGFDAMVQDWLQVAAAGKLPTHIIERNLASHQLAEAICQQITQQVTKGEGGSHHHHHH | soluble
14 | MGSDKIHHHHHHMPRGPTKKKTEDTTSQSLESKLWATADKLRGHLDAADYKHVVLGLIFLKYISDRFAQRHEEIIREEAGTYAAEDRDEYTAEGVFWVPASSRWAVVQTAAKQPDIGKRIDGAMTDIERENPHLKNILPKGYARPTLDQRRLGELVDLIGTIGLGTAEHQARDTLGRVYEYFLGRFASAEGKRGGEFYTPASVVRTLVTMLAPYKGRIYDPCCGSGGMFVQSEKFIEAHGGKVGDISVYGEESNPNTWKLALMNLAIRGIEADLGPEAADTFHKDLHPDLRADYILANPPFNISDWGGDLLRDDKRWQYGIPPTGNANFAWVQHMVHHLAPYGIAGFVLANGSMSSNTSGEGEIRKNLIEADLVDCMVAMPGQLFYSTQIPVCLWFLAKNRDDGRGMTGKELFERTGEVLFIDARNMGFMADRTHRELTDEDIQKIADTYHNWRGDGDGEYADIPGFCKAASLDDIRKNGHVLTPGRYVGAAAKDDDGEPFEEKMDRLTKELSAQLAEGRRLEDEMLKNFRVLGYEL | not soluble
15 | MAATVRNLPALFRGLHSKEVCQKMSFSVSAAAKSEILVDTHGSKKVVTLNRPKALNALNLEMVREFYPKLQAWNSSSDVDLVILKGSGDKAFCAGGDVLAVVRSFKDSESGKECTMHKDFFREEYILNHLIGTLNKQYVCLIDGIVMGGGCGLSVNGRFRVATEKTMLAMPETALGLFPDVGGSYFLSRLKGNLGMYLALTGYRLLGADAFHAGLATHFVESSELAKLEKELVNIKDVTENSVDEVIRSFEPKKIPEFSLSKNLAQIRDSFKAKSVEEILASLEKDGSDWAKKQAATLGKMSPTSLKVTHRQITEGSKMSYAKIFTMEYRLTQRFLADKDFHEGCRAILVDKDRKPKWNPATLADVKDSVVDNYFSPLPNNSDLKL | not soluble
16 | MGSDKIHHHHHHMPIIATAAWSIPKKVADRFAQGGSSLTRYASVFDGVEVNSTFYRRHKTSTFATWEHSVPDAFRFAVKIPKEITHTSAMRDIAEPFDTFLEDIAPLGEKRGPLLCQLPPSLTFDVEVLQTAFKTMRDADDGPIVIEVRHKSWASAEALDLLKTYRIDRVLADPAPVWPVEDFDTPPKYVRLHGKPKIYYSSYTDDEIKSFSALLAPDSWCVFDNTASGAAIENALNMAEIR | not soluble
17 | MGPKRRQLTFREKSRIIQEVEENPDLRKGEIARRFNIPPSTLSTILKNKRAILASERKYGVASTCRKTNKLSPYDKLEGLLIAWFQQIRAAGLPVKGIILKEKALRIAEELGMDDFTASNGWLDRFRRRRS | soluble
18 | AHHHHHHGSIIAITGTPGVGKTTVARKLAEKLGCKYVNLRDFALEKGIGEVKGDELEVEVDELAYFVEKEFKGKNVVLDGHLSHLMPADLVIVLRAHPKTIAERLKERGYSKDKIGENVEAELVDVILIEALDEHENVIEVDTTGKTPEEVVNEILNLINSGIKRRVGIVDWTKVYEEIIPYLRLGGD | not soluble
